Reference: patent US20180030127A1 (APRILBIO, published 2018)

How the values were obtained:
human serum albumin [1] = target: T1, human serum albumin (human, UniProt P02768 25-609); experiment: ELISA, purified soluble Fab, pH 6
T1 construct: Bought protein; also called HSA; human SA
Protocol: (§1) For the monoclonal phage ELISA, the recombinant phage was obtained from positive E. coli clones by phage rescue, and ˜10⁸ CFU/well were added to MaxiSorb ELISA plates (Nunc, Roskilde, Denmark) that were coated with 5 μg/ml HSA, RSA, MSA or BSA. The phage was allowed to bind to the antigens either at pH 6 or at pH 7.4 for 1 h at 37° C. A goat anti-human kappa L Ab-conjugated with HRPO (Sigma-Aldrich) was used as a secondary antibody. The binding signals were visualized with a TMB substrate (BD Science, San Jose, Calif., USA), and the absorbance at 450 nm was measured using an ELISA reader (Bio-Rad, Hercules, Calif., USA). The data represent the average of three experiments standard deviation. For the conventional ELISA, the various antigens [human SA, rat SA, mouse SA, monkey SA (Alpha diagnositic Intl., San Antonio, Tex., USA), canine SA (CUSABIO, Wuhan, Hubei, China). rabbit SA (Sigma-Aldrich), epidermal growth factor receptor (EGFR) (R&D systems, Minneapolis, Minn., USA), epithelial cell adhesion molecule (EpCAM) (R&D systems), IL-15 receptor a (IL-15Ra) (R&D systems), IL-10 (eBioscience, San Diego, Calif., USA), CD16a (R&D systems), c-MET (Sinobiological, Beijing, China)] at 5 μg/ml concentrations were immobilized on the microtiter plates, and the Fab molecules were allowed to bind to the antigens, and detected as above. […]

human serum albumin [2] = target: T1, human serum albumin; experiment: ELISA, purified soluble Fab, pH 7.4
Protocol: as §1

human serum albumin [3] = target: T1, human serum albumin; experiment: ELISA, purified soluble Fab on coated HSA
rat serum albumin [4] = target: T2, rat serum albumin (rat, UniProt P02770 25-608); experiment: ELISA, purified soluble Fab on coated RSA, pH 6; rat SA, pH 6
T2 construct: Bought protein; also called RSA; rat SA
T2 sequence (P02770 25-608 limits assumed): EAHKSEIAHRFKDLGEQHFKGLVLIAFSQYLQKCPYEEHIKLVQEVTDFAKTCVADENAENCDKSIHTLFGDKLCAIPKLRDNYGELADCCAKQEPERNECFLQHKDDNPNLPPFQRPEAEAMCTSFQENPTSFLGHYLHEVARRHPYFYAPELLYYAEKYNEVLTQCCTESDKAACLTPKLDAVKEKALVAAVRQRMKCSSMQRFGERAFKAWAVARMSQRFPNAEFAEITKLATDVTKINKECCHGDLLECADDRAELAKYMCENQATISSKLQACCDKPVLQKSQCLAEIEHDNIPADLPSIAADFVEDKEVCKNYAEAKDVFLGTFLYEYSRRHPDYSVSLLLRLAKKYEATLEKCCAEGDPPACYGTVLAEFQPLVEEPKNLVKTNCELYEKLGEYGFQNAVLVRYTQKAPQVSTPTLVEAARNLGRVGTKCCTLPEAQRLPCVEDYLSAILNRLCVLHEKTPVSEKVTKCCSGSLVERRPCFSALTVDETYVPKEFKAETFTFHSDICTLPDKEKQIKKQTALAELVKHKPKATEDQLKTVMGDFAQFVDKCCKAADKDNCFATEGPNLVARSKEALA
Protocol: as §1

human serum albumin [5] = target: T1, human serum albumin; experiment: ELISA, purified soluble Fab on coated HSA, pH 6; human SA, pH 6
Protocol: as §1

rat serum albumin [6] = target: T2, rat serum albumin; experiment: ELISA, purified soluble Fab on coated RSA, pH 7.4; rat SA, pH 7.4
Protocol: as §1

human serum albumin [7] = target: T1, human serum albumin; experiment: ELISA, purified soluble Fab on coated HSA, pH 7.4; human SA, pH 7.4
Protocol: as §1

human serum albumin [8] = target: T1, human serum albumin; experiment: biolayer interferometry (Octet RED), SL335 on AR2G biosensor, HSA in solution, pH 7.4
Protocol: (§2) Real-time binding assays between the purified SL335 and the antigens (human SA, rat SA or mouse SA) were performed using biolayer interferometry with an Octet RED system (ForteBio, Menlo park, Calif., USA) as previously described except that AR2G (Amine Reactive Second-Generation) sensors were used (Costin et al., (2013) J Virol. 87, 52-66). Briefly, the predetermined concentration of SL335 was coupled to kinetics grade AR2G biosensors, and unbound Fab fragments were removed from the surfaces of the sensors by incubating in the kinetics buffer […]. […] The binding and dissociation kinetics were calculated using the Octet QK software package, which fit the observed binding curves to a 1:1 binding model to calculate the association rate constants. The association and dissociation rate constants were calculated using at least three different concentrations of human SA, rat SA or mouse SA. The equilibrium dissociation constants were calculated as the kinetic dissociation rate constant divided by the kinetic association rate constant.
(§3) Since SL335 was the best binder among four anti-human SA Fab clones, its cross-reactivity was further analyzed by ELISA. […] The binding affinities of SL335 to human SA, rat SA and mouse SA at pH 6 or pH 7.4 were further measured via biolayer interferometry by passing through different concentration of the antigens on biosensors that were coated with SL335 (see Table 6 below).

rat serum albumin [9] = target: T2, rat serum albumin; experiment: biolayer interferometry (Octet RED), SL335 on AR2G biosensor, RSA in solution, pH 6.0
Protocol: as §2, §3

rat serum albumin [10] = target: T2, rat serum albumin; experiment: biolayer interferometry (Octet RED), SL335 on AR2G biosensor, RSA in solution, pH 7.4
Protocol: as §2, §3

bovine serum albumin = target: T3, bovine serum albumin (bovine, UniProt P02769 25-607); experiment: monoclonal phage ELISA at pH 6, antigen coated at 5 ug/ml, anti-human kappa-HRPO, A450
T3 construct: also called BSA; bovine SA
T3 sequence (P02769 25-607 limits assumed): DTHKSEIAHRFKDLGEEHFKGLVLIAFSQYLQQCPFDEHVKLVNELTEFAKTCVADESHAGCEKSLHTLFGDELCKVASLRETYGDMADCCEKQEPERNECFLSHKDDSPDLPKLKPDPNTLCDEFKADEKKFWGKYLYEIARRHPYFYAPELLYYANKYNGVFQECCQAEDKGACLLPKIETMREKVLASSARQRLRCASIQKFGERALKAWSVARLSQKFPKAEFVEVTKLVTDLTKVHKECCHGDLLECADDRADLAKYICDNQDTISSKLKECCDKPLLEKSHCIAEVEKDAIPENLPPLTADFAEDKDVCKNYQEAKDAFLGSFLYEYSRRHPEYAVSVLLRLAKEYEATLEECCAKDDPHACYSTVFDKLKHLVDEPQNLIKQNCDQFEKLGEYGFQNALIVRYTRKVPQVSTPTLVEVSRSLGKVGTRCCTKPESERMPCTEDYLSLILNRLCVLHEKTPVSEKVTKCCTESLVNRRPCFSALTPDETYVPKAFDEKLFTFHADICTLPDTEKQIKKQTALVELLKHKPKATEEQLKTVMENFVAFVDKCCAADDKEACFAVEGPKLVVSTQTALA
Protocol: For the monoclonal phage ELISA, the recombinant phage was obtained from positive E. coli clones by phage rescue, and ˜10⁸ CFU/well were added to MaxiSorb ELISA plates (Nunc, Roskilde, Denmark) that were coated with 5 μg/ml HSA, RSA, MSA or BSA. The phage was allowed to bind to the antigens either at pH 6 or at pH 7.4 for 1 h at 37° C. A goat anti-human kappa L Ab-conjugated with HRPO (Sigma-Aldrich) was used as a secondary antibody. The binding signals were visualized with a TMB substrate (BD Science, San Jose, Calif., USA), and the absorbance at 450 nm was measured using an ELISA reader (Bio-Rad, Hercules, Calif., USA). The data represent the average of three experiments standard deviation. For the conventional ELISA, the various antigens [human SA, rat SA, mouse SA, monkey SA (Alpha diagnositic Intl., San Antonio, Tex., USA), canine SA (CUSABIO, Wuhan, Hubei, China). rabbit SA (Sigma-Aldrich), epidermal growth factor receptor (EGFR) (R&D systems, Minneapolis, Minn., USA), epithelial cell adhesion molecule (EpCAM) (R&D systems), IL-15 receptor a (IL-15Ra) (R&D systems), IL-10 (eBioscience, San Diego, Calif., USA), CD16a (R&D systems), c-MET (Sinobiological, Beijing, China)] at 5 μg/ml concentrations were immobilized on the microtiter plates, and the Fab molecules were allowed to bind to the antigens, and detected as above. To determine the concentration of soluble Fab or Fab-hGH fusion proteins, a sandwich ELISA was performed using a mouse anti-human IgG Fd mAb (AprilBio) as a capturing Ab and the goat anti-human kappa L chain pAb-HRPO conjugated (Sigma-Aldrich) as a detecting antibody. The human Fab fragment (Bethyl, Montgomery, Tex., USA) with a known concentration was used to draw the standard curve. For detecting the hGH domain, T-20, a goat pAb specific for the C-terminus of the hGH (Santacruz Biotechnology, Dallas, Tex., USA) and NYThGH, a mouse mAb specific for full-length hGH (Prospec, East Brunswick, N.J., USA) were used followed by a rabbit anti-goat IgG pAb-HRPO conjugated (Sigma-Aldrich) or a goat anti-mouse IgG pAb-HRPO conjugated (Sigma-Aldrich), respectively as a secondary antibody. A goat anti-human GCSF pAb (R&D Systems) was used to detecting the G-CSF domain, and a rabbit anti-human IFN-β pAb (PEPROTECH, Rocky Hill, USA) was used to detect the IFN-β domain.

mouse serum albumin [11] = target: T4, mouse serum albumin (mouse, UniProt P07724 25-608); experiment: biolayer interferometry (Octet RED), SL335 on AR2G biosensor, MSA in solution, pH 6; the filing calls the data unreliable; pH 6; left out of Table 6 for lack of reliability
T4 construct: Bought protein; also called MSA; mouse SA
T4 sequence (P07724 25-608 limits assumed): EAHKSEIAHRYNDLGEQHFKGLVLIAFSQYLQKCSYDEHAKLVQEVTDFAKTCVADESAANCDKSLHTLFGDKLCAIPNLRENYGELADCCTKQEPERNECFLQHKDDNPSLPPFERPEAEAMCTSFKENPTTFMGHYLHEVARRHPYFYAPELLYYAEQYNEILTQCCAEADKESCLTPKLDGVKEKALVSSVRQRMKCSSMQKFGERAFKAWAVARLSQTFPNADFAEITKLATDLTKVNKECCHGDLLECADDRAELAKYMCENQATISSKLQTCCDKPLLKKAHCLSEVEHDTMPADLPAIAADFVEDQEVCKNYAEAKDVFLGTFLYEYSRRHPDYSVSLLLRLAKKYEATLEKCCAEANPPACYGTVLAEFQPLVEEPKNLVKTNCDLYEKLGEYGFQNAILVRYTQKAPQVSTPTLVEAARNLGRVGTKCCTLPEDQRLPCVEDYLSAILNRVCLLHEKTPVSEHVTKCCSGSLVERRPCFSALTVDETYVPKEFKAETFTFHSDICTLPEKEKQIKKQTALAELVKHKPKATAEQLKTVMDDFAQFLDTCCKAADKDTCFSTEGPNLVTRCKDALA
Protocol: as §2

mouse serum albumin [12] = target: T4, mouse serum albumin; experiment: biolayer interferometry (Octet RED), SL335 on AR2G biosensor, MSA in solution, pH 7.4; the filing calls the data unreliable; pH 7.4; left out of Table 6 for lack of reliability
Protocol: as §2
Since SL335 was the best binder among four anti-human SA Fab clones, its cross-reactivity was further analyzed by ELISA. […]

B1: SL335 (Fab, V domains shown)
VH: QVQLVQSGGGPVKPGGSLRLSCAASGFMFRAYSMNWVRQAPGKGLEWVSSISSSGRYIHYADSVKGRFTISRDNAKNSLYLQMNSLRAEDTAVYYCARETVMAGKALDYWGQGTLVTVSS
VL: ELVLTQSPGTLSLSPGETATLSCRASQSVGSNLAWYQQKPGQAPRLLIYGASTGATGVPARFSGSRSGTDFTLTITSLQPEDFATYYCQQYYSFLAKTFGQGTQLEIKR
notes: Human anti-serum albumin Fab in the classic form (VH+CH1 with Cys233, VL+CLk with Cys214); tested on phage and as soluble Fab purified from E. coli; also called SL335wt; SL335 Fab
Human serum albumin [1]
  fold stronger binding than to rat SA at pH 6: 20 fold
Human serum albumin [2]
  fold stronger binding than to rat SA at pH 7.4: 4 fold
Human serum albumin [3]
  fold stronger binding at pH 6 than at pH 7.4: 2 fold
Rat serum albumin [4]
  EC50: 0.4 µg/mL
Human serum albumin [5]
  EC50: 0.02 µg/mL
Rat serum albumin [6]
  EC50: 0.16 µg/mL
Human serum albumin [7]
  EC50: 0.04 µg/mL
Human serum albumin [8]
  Kd: 13 nM
  koff: 0.00152 s⁻¹
  kon: 117000 M⁻¹ s⁻¹
Rat serum albumin [9]
  Kd: 122 nM
  koff: 0.00576 s⁻¹
  kon: 47100 M⁻¹ s⁻¹
Rat serum albumin [10]
  Kd: 65.3 nM
  koff: 0.00282 s⁻¹
  kon: 43200 M⁻¹ s⁻¹
Bovine serum albumin
  binding result: no binding
Mouse serum albumin [11]
  Kd: ~10000 nM
Mouse serum albumin [12]
  Kd: ~1600 nM
